This note sets out measurements from publication PMC6597583.

For experiment [1], the target named is AtCYP19-3 (Arabidopsis thaliana).
Experiment [2] addresses BnCYP18-4 (Brassica napus).
The target in experiment [3] is BnCYP19-1 (Brassica napus).
Experiment [4] has as its target BnCYP18-5 (Brassica napus).

For the substance cyclosporin A (peptide), the IC50 of CsA for inhibition of PPIase activity (protease-coupled assay, substrate Suc-AAPF-pNA, 5 nM protein, 0 to 1000 nM CsA, 4 °C) is 0.0204 µM in experiment [1], 0.0142 µM in experiment [2], 0.0166 µM in experiment [3] and 0.0224 µM in experiment [4].
